The target in assay [1] is T1, human TL1A (Fitzgerald, Prod. #30R-AT070) (human, UniProt O95150 72-251, limits assumed, biotinylated with EZ-Link Sulfo-NHS-LC-Biotin where used as soluble antigen).
T1 construct: also called TNFSF15; biotinylated human TL1A
T1 sequence (looked up): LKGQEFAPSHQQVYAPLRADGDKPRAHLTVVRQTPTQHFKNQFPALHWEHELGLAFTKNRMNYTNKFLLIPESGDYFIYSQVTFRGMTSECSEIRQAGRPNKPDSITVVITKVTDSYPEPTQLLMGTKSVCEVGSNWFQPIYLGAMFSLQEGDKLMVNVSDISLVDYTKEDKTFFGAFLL
The experiment in a line: ELISA. (In general: In an ELISA, binding on a coated surface is turned into a signal by an enzyme label.)

Assay [2] addresses T2, human TL1A (endogenous, human whole blood assay) (human, UniProt O95150 1-251, limits assumed).
T2 sequence (looked up): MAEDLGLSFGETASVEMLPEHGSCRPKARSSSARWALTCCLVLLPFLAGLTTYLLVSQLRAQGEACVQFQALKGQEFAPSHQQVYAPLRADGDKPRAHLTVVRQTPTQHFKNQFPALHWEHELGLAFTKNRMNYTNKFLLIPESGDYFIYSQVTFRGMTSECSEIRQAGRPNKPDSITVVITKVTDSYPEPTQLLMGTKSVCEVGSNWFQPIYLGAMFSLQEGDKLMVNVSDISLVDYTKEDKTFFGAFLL
The assay can be described thus: cell-based or functional assay.

Experimental findings from US20240368263A1 (PROMETHEUS BIOSCIENCES, published 2024) are described below.

B1: H3-7 (V102K) Fab (Fab, V domains shown)
VH: QVQLVQSGAEVKKPGASVKVSCKASGFDIQDTYMHWVRQAPGQGLEWMGRIDPASGHTKYDPKFQVRVTMTRDTSTSTVYMELSSLRSEDTAVYYCARSGGLPDKWGQGTTVTVSS
VL: EIVLTQSPGTLSLSPGERATLSCRASSSVSYMYWYQQKPGQAPRLLIYATSNLASGIPDRFSGSGSGTDFTLTISRLEPEDFAVYYCQQWSGNPRTFGGGTKLEIK
notes: Fab; also called 21-3 V102K heavy chain with 18-7 light chain
For the molecule B1, the binding result in assay [1] is “binds”.

B2: H3-7 (V102M) Fab (Fab, V domains shown)
VH: QVQLVQSGAEVKKPGASVKVSCKASGFDIQDTYMHWVRQAPGQGLEWMGRIDPASGHTKYDPKFQVRVTMTRDTSTSTVYMELSSLRSEDTAVYYCARSGGLPDMWGQGTTVTVSS
VL: EIVLTQSPGTLSLSPGERATLSCRASSSVSYMYWYQQKPGQAPRLLIYATSNLASGIPDRFSGSGSGTDFTLTISRLEPEDFAVYYCQQWSGNPRTFGGGTKLEIK
notes: Fab; also called 21-3 V102M heavy chain with 18-7 light chain
As for B2, the binding result in assay [1] is recorded as “binds”.

B3: H3-7 (V102Q) Fab (Fab, V domains shown)
VH: QVQLVQSGAEVKKPGASVKVSCKASGFDIQDTYMHWVRQAPGQGLEWMGRIDPASGHTKYDPKFQVRVTMTRDTSTSTVYMELSSLRSEDTAVYYCARSGGLPDQWGQGTTVTVSS
VL: EIVLTQSPGTLSLSPGERATLSCRASSSVSYMYWYQQKPGQAPRLLIYATSNLASGIPDRFSGSGSGTDFTLTISRLEPEDFAVYYCQQWSGNPRTFGGGTKLEIK
notes: Fab; also called 21-3 V102Q heavy chain with 18-7 light chain
With B3, the binding result in assay [1] was “binds”.

B4: clone 47, IgG2 / kappa (antibody)
heavy: QVQLVQSGAEVKKPGASVKVSCKASGFDIQDTYMHWVRQAPGQGLEWMGRIEPASGHVKYDPKFQTRVTMTRDTSTSTVYMELSSLRSEDTAVYYCARSGGLPDWWGQGTTVTVSSASTKGPSVFPLAPCSRSTSESTAALGCLVKDYFPEPVTVSWNSGALTSGVHTFPAVLQSSGLYSLSSVVTVPSSNFGTQTYTCNVDHKPSNTKVDKTVERKCCVECPPCPAPPVAGPSVFLFPPKPKDTLMISRTPEVTCVVVDVSHEDPEVQFNWYVDGVEVHNAKTKPREEQFNSTFRVVSVLTVVHQDWLNGKEYKCKVSNKGLPAPIEKTISKTKGQPREPQVYTLPPSREEMTKNQVSLTCLVKGFYPSDIAVEWESNGQPENNYKTTPPMLDSDGSFFLYSKLTVDKSRWQQGNVFSCSVMHEALHNHYTQKSLSLSPGK
light: EIVLTQSPGTLSLSPGERATLSCRASSSVSYMYWYQQKPGQAPRLLIYATSNLASGIPDRFSGSGSGTDFTLTISRLEPEDFAVYYCQQWEGNPRTFGGGTKLEIKRTVAAPSVFIFPPSDEQLKSGTASVVCLLNNFYPREAKVQWKVDNALQSGNSQESVTEQDSKDSTYSLSSTLTLSKADYEKHKVYACEVTHQGLSSPVTKSFNRGEC
Turning to B4, in assay [2], the “IC50, inhibition of IFN-γ production, human whole blood assay” value was 1.01 nM.

B5: clone 14, IgG2 / kappa (antibody)
heavy: QVQLVQSGAEVKKPGASVKVSCKASGFDIQDTYMHWVRQAPGQGLEWMGRIDPASGHIKYDPKFQKRVTMTRDTSTSTVYMELSSLRSEDTAVYYCARSGGLPDMWGQGTTVTVSSASTKGPSVFPLAPCSRSTSESTAALGCLVKDYFPEPVTVSWNSGALTSGVHTFPAVLQSSGLYSLSSVVTVPSSNFGTQTYTCNVDHKPSNTKVDKTVERKCCVECPPCPAPPVAGPSVFLFPPKPKDTLMISRTPEVTCVVVDVSHEDPEVQFNWYVDGVEVHNAKTKPREEQFNSTFRVVSVLTVVHQDWLNGKEYKCKVSNKGLPAPIEKTISKTKGQPREPQVYTLPPSREEMTKNQVSLTCLVKGFYPSDIAVEWESNGQPENNYKTTPPMLDSDGSFFLYSKLTVDKSRWQQGNVFSCSVMHEALHNHYTQKSLSLSPGK
light: EIVLTQSPGTLSLSPGERATLSCRASSSVSYMYWYQQKPGQAPRLLIYATSNLASGIPDRFSGSGSGTDFTLTISRLEPEDFAVYYCQQWQGNPRTFGGGTKLEIKRTVAAPSVFIFPPSDEQLKSGTASVVCLLNNFYPREAKVQWKVDNALQSGNSQESVTEQDSKDSTYSLSSTLTLSKADYEKHKVYACEVTHQGLSSPVTKSFNRGEC
With B5, the “IC50, inhibition of IFN-γ production, human whole blood assay” value in assay [2] was 0.35 nM.
